Values quoted from earlier work in patent US6896870B1, “Diagnostic probes and therapeutics targeting uPA and uPAR” (Angstrom Pharmaceuticals, Inc., priority 1999, dated 2005).
Bridge positions count the residues as written; N and C are the ends. Ends that are not written are not given here.

Target: uPAR (Homo sapiens, UniProt Q03405)
Details: read-out: IC50, prevention of uPA binding to uPAR

Chain of uPAR (Q03405 23-305): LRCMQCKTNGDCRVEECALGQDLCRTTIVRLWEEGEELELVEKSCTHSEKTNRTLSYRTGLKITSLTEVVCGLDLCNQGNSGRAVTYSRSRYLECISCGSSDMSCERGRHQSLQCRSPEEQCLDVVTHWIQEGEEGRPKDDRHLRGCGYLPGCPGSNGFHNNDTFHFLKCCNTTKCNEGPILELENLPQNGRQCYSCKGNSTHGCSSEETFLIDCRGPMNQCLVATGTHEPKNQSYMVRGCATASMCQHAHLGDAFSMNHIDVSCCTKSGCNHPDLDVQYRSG

Substance	IC50 [nM]
[Ala^19]uPA(12-32) [[Ala^19]uPA(12-32) open chain form] (DCLNGGTAVSNKYFSNIHWCN; UniProt P00749 32-52, looked up, variant C19A) [uPA GFD peptide with two cysteines, the third cysteine replaced by Ala]	100
[Ala^19]uPA(12-32) [[Ala^19]uPA(12-32) oxidized cyclic form] (DCLNGGTAVSNKYFSNIHWCN; disulfide 2-20 (inferred); UniProt P00749 32-52, looked up, variant C19A) [same peptide cyclised by intrachain disulfide bond]	40
